Assay results taken from the supplement of paper PMC10567573.

B1: TFE3 (parent)
chain: FHLGLEDILMEEEEGVVGGLSGGA
B2: LOC100129726 (parent)
chain: AKAADSPTRNDLESGLGHFSLRVH

Variants of: B1
Test: protein stability index of a GFP-peptide fusion (GPS, HEK-293T) (PSI 1-6); higher = more stable
Details: c terminus: a fixed tail appended
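Also: lentivirally expressed fusions sorted by FACS into six bins by GFP to DsRed ratio, PSI derived from sequencing read proportions per bin multiplied by bin number.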

| Variant | protein stability index |
| --- | --- |
| FHLRLEDILMEEEEGVVGGLSGGA [G4R] | 2.5 |
| FHLGLEDALMEEEEGVVGGLSGGA [I8A] | 4.33 |
| FHLGLEDILMEEEEGVVGGLGGGA [S21G] | 4.07 |
| FHLGMEDILMEEEEGVVGGLSGGA [L5M] | 3.46 |
| FHLGLEDILMEEEEGVVGGKSGGA [L20K] | 4.55 |
| FHLGLETILMEEEEGVVGGLSGGA [D7T] | 3 |
| FHLGLEDILMEEEEGVVGWLSGGA [G19W] | 2.18 |

Variants of: B2
Test: as above
Details: c terminus: a fixed tail appended

| Variant | protein stability index |
| --- | --- |
| AKAADDPTRNDLESGLGHFSLRVH [S6D] | 3.44 |
| AKAADYPTRNDLESGLGHFSLRVH [S6Y] | 2.26 |
| AKAADMPTRNDLESGLGHFSLRVH [S6M] | 2.16 |
| AKAADTPTRNDLESGLGHFSLRVH [S6T] | 3.39 |
| AKAADVPTRNDLESGLGHFSLRVH [S6V] | 2.77 |
| AKAADQPTRNDLESGLGHFSLRVH [S6Q] | 3.76 |
| AKAADRPTRNDLESGLGHFSLRVH [S6R] | 3.08 |
| AKAADNPTRNDLESGLGHFSLRVH [S6N] | 3.58 |
| AKAADEPTRNDLESGLGHFSLRVH [S6E] | 3.5 |
| AKAADFPTRNDLESGLGHFSLRVH [S6F] | 2.74 |
| AKAADCPTRNDLESGLGHFSLRVH [S6C] | 2.71 |
| AKAADPPTRNDLESGLGHFSLRVH [S6P] | 3.16 |
| AKAADHPTRNDLESGLGHFSLRVH [S6H] | 2.95 |
| AKAADKPTRNDLESGLGHFSLRVH [S6K] | 2.98 |
| AKAADLPTRNDLESGLGHFSLRVH [S6L] | 2.16 |
| AKAADWPTRNDLESGLGHFSLRVH [S6W] | 1.92 |
| AKAADGPTRNDLESGLGHFSLRVH [S6G] | 2.72 |
| AKAADIPTRNDLESGLGHFSLRVH [S6I] | 2.53 |
| AKAADAPTRNDLESGLGHFSLRVH [S6A] | 2.45 |
| AKACDSPTRNDLESGLGHFSLRVH [A4C] | 3.05 |
| AKAYDSPTRNDLESGLGHFSLRVH [A4Y] | 2.42 |
| AKAKDSPTRNDLESGLGHFSLRVH [A4K] | 3.09 |

| Variant | protein stability index |
| --- | --- |
| AKADDSPTRNDLESGLGHFSLRVH [A4D] | 3.87 |
| AKARDSPTRNDLESGLGHFSLRVH [A4R] | 2.81 |
| AKAVDSPTRNDLESGLGHFSLRVH [A4V] | 2.4 |
| AKAPDSPTRNDLESGLGHFSLRVH [A4P] | 3.06 |
| AKAFDSPTRNDLESGLGHFSLRVH [A4F] | 2.31 |
| AKALDSPTRNDLESGLGHFSLRVH [A4L] | 2.95 |
| AKAIDSPTRNDLESGLGHFSLRVH [A4I] | 2.98 |
| AKANDSPTRNDLESGLGHFSLRVH [A4N] | 3.04 |
| AKAHDSPTRNDLESGLGHFSLRVH [A4H] | 3.36 |
| AKAWDSPTRNDLESGLGHFSLRVH [A4W] | 2.16 |
| AKAMDSPTRNDLESGLGHFSLRVH [A4M] | 2.54 |
| AKASDSPTRNDLESGLGHFSLRVH [A4S] | 3.1 |
| AKATDSPTRNDLESGLGHFSLRVH [A4T] | 3.7 |
| AKAGDSPTRNDLESGLGHFSLRVH [A4G] | 2.86 |
| AKAEDSPTRNDLESGLGHFSLRVH [A4E] | 4.12 |
| AKAQDSPTRNDLESGLGHFSLRVH [A4Q] | 3.15 |
| AKAAFSPTRNDLESGLGHFSLRVH [D5F] | 2.17 |
| AKAATSPTRNDLESGLGHFSLRVH [D5T] | 2.61 |
| AKAAKSPTRNDLESGLGHFSLRVH [D5K] | 3.19 |
| AKAASSPTRNDLESGLGHFSLRVH [D5S] | 3.07 |
| AKAARSPTRNDLESGLGHFSLRVH [D5R] | 2.67 |
| AKAALSPTRNDLESGLGHFSLRVH [D5L] | 2.56 |

| Variant | protein stability index |
| --- | --- |
| AKAAGSPTRNDLESGLGHFSLRVH [D5G] | 2.9 |
| AKAAYSPTRNDLESGLGHFSLRVH [D5Y] | 2.3 |
| AKAAMSPTRNDLESGLGHFSLRVH [D5M] | 3.06 |
| AKAAHSPTRNDLESGLGHFSLRVH [D5H] | 2.63 |
| AKAAPSPTRNDLESGLGHFSLRVH [D5P] | 2.48 |
| AKAAQSPTRNDLESGLGHFSLRVH [D5Q] | 3.15 |
| AKAANSPTRNDLESGLGHFSLRVH [D5N] | 2.81 |
| AKAAISPTRNDLESGLGHFSLRVH [D5I] | 2.65 |
| AKAAASPTRNDLESGLGHFSLRVH [D5A] | 2.84 |
| AKAAWSPTRNDLESGLGHFSLRVH [D5W] | 2.14 |
| AKAAVSPTRNDLESGLGHFSLRVH [D5V] | 2.54 |
| AKAAESPTRNDLESGLGHFSLRVH [D5E] | 3.16 |
| AKAACSPTRNDLESGLGHFSLRVH [D5C] | 2.34 |
| AKAADSPTRCDLESGLGHFSLRVH [N10C] | 2.13 |
| AKAADSPTRMDLESGLGHFSLRVH [N10M] | 2.51 |
| AKAADSPTRKDLESGLGHFSLRVH [N10K] | 2.98 |
| AKAADSPTRHDLESGLGHFSLRVH [N10H] | 3.53 |
| AKAADSPTRLDLESGLGHFSLRVH [N10L] | 2.88 |
| AKAADSPTRFDLESGLGHFSLRVH [N10F] | 2.38 |
| AKAADSPTRADLESGLGHFSLRVH [N10A] | 3.06 |
| AKAADSPTRPDLESGLGHFSLRVH [N10P] | 4 |
| AKAADSPTRGDLESGLGHFSLRVH [N10G] | 2.77 |

| Variant | protein stability index |
| --- | --- |
| AKAADSPTRDDLESGLGHFSLRVH [N10D] | 3.61 |
| AKAADSPTRIDLESGLGHFSLRVH [N10I] | 1.78 |
| ATAADSPTRNDLESGLGHFSLRVH [K2T] | 3.27 |
| AMAADSPTRNDLESGLGHFSLRVH [K2M] | 2.78 |
| AHAADSPTRNDLESGLGHFSLRVH [K2H] | 3.38 |
| AQAADSPTRNDLESGLGHFSLRVH [K2Q] | 2.69 |
| AGAADSPTRNDLESGLGHFSLRVH [K2G] | 2.71 |
| AAAADSPTRNDLESGLGHFSLRVH [K2A] | 3.68 |
| ARAADSPTRNDLESGLGHFSLRVH [K2R] | 3.38 |
| AFAADSPTRNDLESGLGHFSLRVH [K2F] | 2.42 |
| AWAADSPTRNDLESGLGHFSLRVH [K2W] | 1.66 |
| AVAADSPTRNDLESGLGHFSLRVH [K2V] | 3.18 |
| AEAADSPTRNDLESGLGHFSLRVH [K2E] | 3.98 |
| AIAADSPTRNDLESGLGHFSLRVH [K2I] | 3.21 |
| AYAADSPTRNDLESGLGHFSLRVH [K2Y] | 2.49 |
| APAADSPTRNDLESGLGHFSLRVH [K2P] | 3.23 |
| ACAADSPTRNDLESGLGHFSLRVH [K2C] | 2.05 |
| ADAADSPTRNDLESGLGHFSLRVH [K2D] | 3.55 |
| ANAADSPTRNDLESGLGHFSLRVH [K2N] | 2.88 |
| ASAADSPTRNDLESGLGHFSLRVH [K2S] | 2.99 |
| ALAADSPTRNDLESGLGHFSLRVH [K2L] | 3.03 |
